The sequences below were run on Escherichia coli TOP10 (assay: shrunken log2 fold change of peptide-encoding DNA abundance (4.5 h post-induction vs induction); higher = less antimicrobial activity (less host growth inhibition)). Details: time post-induction: 4.5 h; library: site-saturation at positions 5, 18, 19, 20.
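Further: peptides expressed intracellularly from a pBAD plasmid library in pooled LB shake-flask culture, induced with 0.3% L-arabinose, DNA abundance read by NGS, three biological replicates, DESeq2 with apeglm shrinkage.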

| Sequence | shrunken log2 fold change |
| --- | --- |
| RRIRIRPPRLPRPRPRPHQAPRP | -0.0342 |
| RRIRIRPPRLPRPRPRPHQNPRP | -0.165 |
| RRIRIRPPRLPRPRPRPHQQPRP | -0.132 |
| RRIRIRPPRLPRPRPRPHQTPRP | 0.0701 |
| RRIRIRPPRLPRPRPRPHRMPRP | -1.01 |
| RRIRIRPPRLPRPRPRPHRWPRP | -0.0221 |
| RRIRIRPPRLPRPRPRPHWVPRP | -0.0146 |
| RRIRIRPPRLPRPRPRPIAGPRP | -0.017 |
| RRIRIRPPRLPRPRPRPIAIPRP | -0.257 |
| RRIRIRPPRLPRPRPRPIANPRP | -0.0104 |
| RRIRIRPPRLPRPRPRPICFPRP | -0.152 |
| RRIRIRPPRLPRPRPRPIDKPRP | -0.364 |
| RRIRIRPPRLPRPRPRPIFWPRP | 0.397 |
| RRIRIRPPRLPRPRPRPIGCPRP | -0.00783 |
| RRIRIRPPRLPRPRPRPIGQPRP | -0.0062 |
| RRIRIRPPRLPRPRPRPIHAPRP | -0.00674 |
| RRIRIRPPRLPRPRPRPIIAPRP | -0.389 |
| RRIRIRPPRLPRPRPRPIIQPRP | -0.455 |
| RRIRIRPPRLPRPRPRPIKHPRP | -0.571 |
| RRIRIRPPRLPRPRPRPIKIPRP | -0.0548 |
| RRIRIRPPRLPRPRPRPIKSPRP | -0.462 |
| RRIRIRPPRLPRPRPRPIKVPRP | -0.398 |
| RRIRIRPPRLPRPRPRPILIPRP | -0.097 |
| RRIRIRPPRLPRPRPRPIMNPRP | -1.27 |
| RRIRIRPPRLPRPRPRPIMQPRP | -0.557 |

| Sequence | shrunken log2 fold change |
| --- | --- |
| RRIRIRPPRLPRPRPRPINTPRP | -0.954 |
| RRIRIRPPRLPRPRPRPIPGPRP | -0.191 |
| RRIRIRPPRLPRPRPRPIQAPRP | -0.209 |
| RRIRIRPPRLPRPRPRPIQVPRP | -0.071 |
| RRIRIRPPRLPRPRPRPIRNPRP | -0.236 |
| RRIRIRPPRLPRPRPRPISGPRP | -0.0415 |
| RRIRIRPPRLPRPRPRPISTPRP | -1.54 |
| RRIRIRPPRLPRPRPRPITLPRP | -0.237 |
| RRIRIRPPRLPRPRPRPITRPRP | 0.0378 |
| RRIRIRPPRLPRPRPRPIWTPRP | -0.0318 |
| RRIRIRPPRLPRPRPRPIYAPRP | -0.758 |
| RRIRIRPPRLPRPRPRPIYVPRP | -0.24 |
| RRIRIRPPRLPRPRPRPKAFPRP | -0.122 |
| RRIRIRPPRLPRPRPRPKDKPRP | -0.747 |
| RRIRIRPPRLPRPRPRPKDTPRP | -0.224 |
| RRIRIRPPRLPRPRPRPKGVPRP | -0.00153 |
| RRIRIRPPRLPRPRPRPKGWPRP | 0.364 |
| RRIRIRPPRLPRPRPRPKHAPRP | -0.126 |
| RRIRIRPPRLPRPRPRPKHCPRP | -0.405 |
| RRIRIRPPRLPRPRPRPKHQPRP | -0.495 |
| RRIRIRPPRLPRPRPRPKKTPRP | -0.235 |
| RRIRIRPPRLPRPRPRPKLEPRP | -0.136 |
| RRIRIRPPRLPRPRPRPKLKPRP | -0.688 |
| RRIRIRPPRLPRPRPRPKMWPRP | 1.25 |
| RRIRIRPPRLPRPRPRPKMYPRP | -0.25 |

| Sequence | shrunken log2 fold change |
| --- | --- |
| RRIRIRPPRLPRPRPRPKNEPRP | -0.14 |
| RRIRIRPPRLPRPRPRPKNHPRP | -0.622 |
| RRIRIRPPRLPRPRPRPKPQPRP | 0.0958 |
| RRIRIRPPRLPRPRPRPKPTPRP | 0.448 |
| RRIRIRPPRLPRPRPRPKQNPRP | -0.197 |
| RRIRIRPPRLPRPRPRPKSQPRP | -0.0352 |
| RRIRIRPPRLPRPRPRPKTIPRP | -0.25 |
| RRIRIRPPRLPRPRPRPKVDPRP | -0.468 |
| RRIRIRPPRLPRPRPRPKVIPRP | 0.0457 |
| RRIRIRPPRLPRPRPRPLCGPRP | -0.319 |
| RRIRIRPPRLPRPRPRPLDAPRP | -0.142 |
| RRIRIRPPRLPRPRPRPLDHPRP | -0.333 |
| RRIRIRPPRLPRPRPRPLDRPRP | 0.00847 |
| RRIRIRPPRLPRPRPRPLEMPRP | -0.373 |
| RRIRIRPPRLPRPRPRPLFCPRP | -0.517 |
| RRIRIRPPRLPRPRPRPLFKPRP | -0.773 |
| RRIRIRPPRLPRPRPRPLFRPRP | -0.429 |
| RRIRIRPPRLPRPRPRPLFVPRP | -0.642 |
| RRIRIRPPRLPRPRPRPLIFPRP | -0.562 |
| RRIRIRPPRLPRPRPRPLKDPRP | -0.0958 |
| RRIRIRPPRLPRPRPRPLKMPRP | -0.245 |
| RRIRIRPPRLPRPRPRPLLLPRP | -0.597 |
| RRIRIRPPRLPRPRPRPLMVPRP | -0.942 |
| RRIRIRPPRLPRPRPRPLNGPRP | -0.0474 |
| RRIRIRPPRLPRPRPRPLPSPRP | -0.0327 |

| Sequence | shrunken log2 fold change |
| --- | --- |
| RRIRIRPPRLPRPRPRPLSTPRP | -0.599 |
| RRIRIRPPRLPRPRPRPLTHPRP | -0.358 |
| RRIRIRPPRLPRPRPRPLTLPRP | -0.22 |
| RRIRIRPPRLPRPRPRPLTWPRP | -0.585 |
| RRIRIRPPRLPRPRPRPLVKPRP | -0.0899 |
| RRIRIRPPRLPRPRPRPLVNPRP | -0.814 |
| RRIRIRPPRLPRPRPRPLWSPRP | -0.245 |
| RRIRIRPPRLPRPRPRPLYAPRP | -0.651 |
| RRIRIRPPRLPRPRPRPLYGPRP | -0.702 |
| RRIRIRPPRLPRPRPRPLYIPRP | -0.695 |
| RRIRIRPPRLPRPRPRPLYLPRP | -1.08 |
| RRIRIRPPRLPRPRPRPLYNPRP | -0.522 |
| RRIRIRPPRLPRPRPRPMARPRP | -0.153 |
| RRIRIRPPRLPRPRPRPMCIPRP | -0.232 |
| RRIRIRPPRLPRPRPRPMCVPRP | -0.209 |
| RRIRIRPPRLPRPRPRPMDLPRP | -1.16 |
| RRIRIRPPRLPRPRPRPMFHPRP | -0.517 |
| RRIRIRPPRLPRPRPRPMFWPRP | -0.128 |
| RRIRIRPPRLPRPRPRPMGRPRP | 0.126 |
| RRIRIRPPRLPRPRPRPMGVPRP | -0.0148 |
| RRIRIRPPRLPRPRPRPMGWPRP | 0.237 |
| RRIRIRPPRLPRPRPRPMHEPRP | -0.0221 |
| RRIRIRPPRLPRPRPRPMHGPRP | -0.216 |
| RRIRIRPPRLPRPRPRPMIVPRP | -0.0322 |
| RRIRIRPPRLPRPRPRPMLGPRP | -0.146 |

| Sequence | shrunken log2 fold change |
| --- | --- |
| RRIRIRPPRLPRPRPRPMMFPRP | -0.0225 |
| RRIRIRPPRLPRPRPRPMMPPRP | -0.238 |
| RRIRIRPPRLPRPRPRPMNNPRP | -0.465 |
| RRIRIRPPRLPRPRPRPMQLPRP | 3.42 |
| RRIRIRPPRLPRPRPRPMRGPRP | 1.32 |
| RRIRIRPPRLPRPRPRPMRYPRP | -0.176 |
| RRIRIRPPRLPRPRPRPMSRPRP | -0.24 |
| RRIRIRPPRLPRPRPRPMSSPRP | -0.215 |
| RRIRIRPPRLPRPRPRPMTKPRP | 0.0447 |
| RRIRIRPPRLPRPRPRPMVWPRP | 0.0906 |
| RRIRIRPPRLPRPRPRPNAYPRP | -0.243 |
| RRIRIRPPRLPRPRPRPNCGPRP | 0.0437 |
| RRIRIRPPRLPRPRPRPNDAPRP | -0.182 |
| RRIRIRPPRLPRPRPRPNESPRP | -0.243 |
| RRIRIRPPRLPRPRPRPNHIPRP | -1.16 |
| RRIRIRPPRLPRPRPRPNKEPRP | -0.131 |
| RRIRIRPPRLPRPRPRPNKKPRP | -0.0918 |
| RRIRIRPPRLPRPRPRPNLDPRP | -0.564 |
| RRIRIRPPRLPRPRPRPNNLPRP | -0.69 |
| RRIRIRPPRLPRPRPRPNNPPRP | -0.471 |
| RRIRIRPPRLPRPRPRPNQLPRP | -0.136 |
| RRIRIRPPRLPRPRPRPNQSPRP | -0.812 |
| RRIRIRPPRLPRPRPRPNQTPRP | -0.00271 |
| RRIRIRPPRLPRPRPRPNQWPRP | -0.422 |
| RRIRIRPPRLPRPRPRPNRKPRP | 0.00157 |

| Sequence | shrunken log2 fold change |
| --- | --- |
| RRIRIRPPRLPRPRPRPNRNPRP | -1.1 |
| RRIRIRPPRLPRPRPRPNSPPRP | 0.00971 |
| RRIRIRPPRLPRPRPRPNVSPRP | -0.052 |
| RRIRIRPPRLPRPRPRPNWAPRP | 0.0373 |
| RRIRIRPPRLPRPRPRPNWLPRP | -0.0339 |
| RRIRIRPPRLPRPRPRPPATPRP | 0.177 |
| RRIRIRPPRLPRPRPRPPCCPRP | -0.31 |
| RRIRIRPPRLPRPRPRPPDCPRP | -0.0639 |
| RRIRIRPPRLPRPRPRPPDKPRP | -0.0243 |
| RRIRIRPPRLPRPRPRPPDWPRP | 0.286 |
| RRIRIRPPRLPRPRPRPPEIPRP | -0.578 |
| RRIRIRPPRLPRPRPRPPFEPRP | -0.0183 |
| RRIRIRPPRLPRPRPRPPFIPRP | -0.755 |
| RRIRIRPPRLPRPRPRPPFSPRP | -0.245 |
| RRIRIRPPRLPRPRPRPPGGPRP | 0.512 |
| RRIRIRPPRLPRPRPRPPGHPRP | 0.11 |
| RRIRIRPPRLPRPRPRPPHQPRP | 0.000816 |
| RRIRIRPPRLPRPRPRPPINPRP | -0.305 |
| RRIRIRPPRLPRPRPRPPKCPRP | -0.101 |
| RRIRIRPPRLPRPRPRPPKGPRP | 0.0681 |
| RRIRIRPPRLPRPRPRPPKQPRP | -0.158 |
| RRIRIRPPRLPRPRPRPPPIPRP | 0.141 |
| RRIRIRPPRLPRPRPRPPPTPRP | 0.834 |
| RRIRIRPPRLPRPRPRPPQTPRP | 0.0803 |
| RRIRIRPPRLPRPRPRPPSRPRP | 0.231 |

— the supplement of paper PMC9112550, “Optimization of the antimicrobial peptide Bac7 by deep mutational scanning” (BMC Biology, 2022)
